From patent US20060084596A1 (UNIVERSITY OF SOUTH FLORIDA, published 2006) come the findings set out here.

B1: GFB-122 (designed binder)
peptide: GDDY
modifications: linker N-C via 3‑aminomethyl‑5‑aminobenzamide; also: four loops on But-Calix calix[4]arene scaffold
B2: GFB-101 (designed binder)
peptide: GFGD
modifications: linker N-C via 3‑aminomethyl‑5‑aminobenzamide; also: four loops on O4-Calix calix[4]arene scaffold
B3: GFB-136 (designed binder)
peptide 1: GDDD
peptide 2: GDGY
modifications: also: 3 GDDD loops and 1 GDGY loop on But-Calix scaffold, linker to a chain's N/C-terminus via 3-aminomethyl-5-aminobenzamide
B4: GFB-106 (designed binder)
peptide: GDDD
modifications: linker N-C via 3‑aminomethyl‑5‑aminobenzamide; also: four loops on But-Calix calix[4]arene scaffold
B5: GFB-109 (designed binder)
peptide: GDLD
modifications: linker N-C via 3‑aminomethyl‑5‑aminobenzamide; also: four loops on But-Calix calix[4]arene scaffold
B6: GFB-118 (designed binder)
peptide: [d2Nal]DGD
modifications: linker N-C via 3‑aminomethyl‑5‑aminobenzamide; also: four loops joined to But-Calix calix[4]arene scaffold
B7: GFB-117 (designed binder)
peptide: GDND
modifications: linker N-C via 3‑aminomethyl‑5‑aminobenzamide; also: four loops on But-Calix scaffold
B8: GFB-121 (designed binder)
peptide: [dAbu]DGD
modifications: linker N-C via 3‑aminomethyl‑5‑aminobenzamide; also: four loops joined to But-Calix calix[4]arene scaffold
B9: GFB-128 (designed binder)
peptide: GDGY
modifications: linker N-C via 3‑aminomethyl‑5‑aminobenzamide; also: loops on DPM-2 scaffold
B10: GFB-133 (designed binder)
peptide: GDGY
modifications: linker N-C via 3‑aminomethyl‑5‑aminobenzamide; also: 3 GDGY loops on But-Calix scaffold, CO2H at fourth position
B11: GFB-137 (designed binder)
peptide 1: GDGY
peptide 2: GDDG
modifications: not fully specified; also: linker to a chain's N/C-terminus via 3-aminomethyl-5-aminobenzamide
B12: GFB-119 (designed binder)
peptide: PDGD
modifications: linker N-C via 3‑aminomethyl‑5‑aminobenzamide; also: four loops on But-Calix scaffold
B13: GFB-110 (designed binder)
peptide: GDAD
modifications: linker N-C via 3‑aminomethyl‑5‑aminobenzamide; also: four loops on But-Calix calix[4]arene scaffold
B14: GFB-134 (designed binder)
peptide 1: GDGY
peptide 2: GDDY
modifications: also: 3 GDGY loops and 1 GDDY loop on But-Calix scaffold, linker to a chain's N/C-terminus via 3-aminomethyl-5-aminobenzamide
B15: GFB-135 (designed binder)
peptide 1: GDGY
peptide 2: GDDD
modifications: also: 3 GDGY loops and 1 GDDD loop on But-Calix scaffold, linker to a chain's N/C-terminus via 3-aminomethyl-5-aminobenzamide
B16: GFB-132 (designed binder)
peptide 1: GDGY
peptide 2: GDDG
modifications: also: 3 GDGY loops and 1 GDDG loop on But-Calix scaffold, linker to a chain's N/C-terminus via 3-aminomethyl-5-aminobenzamide
B17: GFB-102 (designed binder)
peptide: GDFD
modifications: linker N-C via 3‑aminomethyl‑5‑aminobenzamide; also: four loops on O4-Calix calix[4]arene scaffold
B18: GFB-107 (designed binder)
peptide: GDGD
modifications: linker N-C via 3‑aminomethyl‑5‑aminobenzamide; also: four loops on But-Calix calix[4]arene scaffold
B19: GFB-130 (designed binder)
peptide: GDDY
modifications: linker N-C via 3‑aminomethyl‑5‑aminobenzamide; also: loops on DPM-2 scaffold
B20: GFB-129 (designed binder)
peptide: GDDD
modifications: linker N-C via 3‑aminomethyl‑5‑aminobenzamide; also: loops on DPM-2 scaffold
B21: GFB-104 (designed binder)
peptide: GDGD
modifications: linker N-C via 3‑aminomethyl‑5‑aminobenzamide; also: four loops on O3-Calix calix[4]arene scaffold

Several values for one entry are separate records, joined by “and”; a condition that tells them apart may be missing. Equal values may be shown once. Positions of bridges follow the written chain, without caps; N, C: chain ends. Non-standard residues stand in square brackets, D forms with d. No end group written: not given here. d2Nal = N[C@H](Cc1ccc2ccccc2c1)C(=O)O; dAbu = CC[C@@H](N)C(=O)O

In general, % Inhibition refers to the drop in the measured response relative to a control, in per cent.

acidic fibroblast growth factor (aFGF), sequence (P05230 16-155 limits assumed): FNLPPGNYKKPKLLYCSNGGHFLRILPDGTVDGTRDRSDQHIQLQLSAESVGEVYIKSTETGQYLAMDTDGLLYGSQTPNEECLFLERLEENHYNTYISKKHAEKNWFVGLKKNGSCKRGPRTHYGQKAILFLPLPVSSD
insulin-like growth factor-1 (IGF-1), sequence (P05019 49-118 limits assumed): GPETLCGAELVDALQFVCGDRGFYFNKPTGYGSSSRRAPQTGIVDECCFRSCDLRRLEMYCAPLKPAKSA

For one assay, the target named is platelet derived growth factor PDGF-BB (UniProt P01127 82-190). Kind of assay: cell-based or functional assay.
platelet derived growth factor PDGF-BB, sequence (P01127 82-190 limits assumed): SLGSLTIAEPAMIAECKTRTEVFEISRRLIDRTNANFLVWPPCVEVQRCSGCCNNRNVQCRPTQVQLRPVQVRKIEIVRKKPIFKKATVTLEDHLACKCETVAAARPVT
As to B1, the “IC50, PDGFR-Y-P” value stood at 1.7 µM and the “IC50, p42/Erk2” value amounted to 19 µM.
On the same counts, the results for B2 are greater than 500 µM and greater than 500 µM.
Regarding B3, the “IC50, PDGFR-Y-P” value came out at 3 µM; the “IC50, p42/Erk2: p42” value was 25 µM; the “IC50, p42/Erk2: p44” value was determined as 24 µM.
With B4, the “IC50, PDGFR-Y-P” value turned out to be 8 µM and the “IC50, p42/Erk2” value is 33 µM.
Regarding B5, the “IC50, PDGFR-Y-P” value worked out at 7.5 µM and the “IC50, p42/Erk2” value was determined as 15 µM.
For B6 the same measures were 0.7 µM and 1.2 µM.
Take B7: the “IC50, PDGFR-Y-P” value is 5.8 µM and the “IC50, p42/Erk2” value amounted to 36 µM.
With B8, the “IC50, PDGFR-Y-P” value came to 5.6 µM and the “IC50, p42/Erk2” value came to 8.5 µM.
For B9, the “IC50, p42/Erk2” value was greater than 50 µM.
Consider B10, for which the “IC50, p42/Erk2: p42” value came to 3.2 µM and the “IC50, p42/Erk2: p44” value is 3 µM.
As to B11, the “IC50, PDGFR-Y-P” value came out at 0.4 µM and the “IC50, p42/Erk2: p42” value came to 2.9 µM.
In the case of B12, the “IC50, PDGFR-Y-P” value turned out to be 20 µM and the “IC50, p42/Erk2” value amounted to 32 µM.
On the same counts, the results for B13 are 1.7 µM and 7 µM.
Consider B14, for which the “IC50, PDGFR-Y-P” value was 1.9 µM; the “IC50, p42/Erk2: p42” value worked out at 2.5 µM; the “IC50, p42/Erk2: p44” value is 2.6 µM.
Turning to B15, the “IC50, PDGFR-Y-P” value is 1.9 µM; the “IC50, p42/Erk2: p42” value was found to be 3.2 µM; the “IC50, p42/Erk2: p44” value was found to be 24 µM.
For B16, the “IC50, PDGFR-Y-P” value is 0.4 µM and the “IC50, p42/Erk2: p42” value came out at 2.9 µM.

For the next assay, the target named is vascular endothelial growth factor (VEGF) (UniProt P15692-4 27-191, limits assumed). The assay is described as follows: cell-based or functional assay.
vascular endothelial growth factor (VEGF), sequence (P15692 other isoform, or with tags, fused parts or gaps limits assumed): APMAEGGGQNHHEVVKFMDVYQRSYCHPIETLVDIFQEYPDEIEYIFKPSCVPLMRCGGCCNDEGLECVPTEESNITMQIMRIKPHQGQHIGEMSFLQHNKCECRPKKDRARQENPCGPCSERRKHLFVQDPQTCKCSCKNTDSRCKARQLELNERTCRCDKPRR
Turning to B2, the “IC50, Flk-1-Y-P” value is greater than 100 µM; the “IC50, p42” value was greater than 100 µM; the “IC50, p44” value was greater than 100 µM.
As to B4, the “IC50, Flk-1-Y-P” value is less than 10 µM; the “IC50, p42” value is less than 10 µM; the “IC50, p44” value is less than 10 µM.
Take B17: the “IC50, p42” value is greater than 100 µM and the “IC50, p44” value was greater than 100 µM.
Take B18: the “IC50, Flk-1-Y-P” value is less than 10 µM; the “IC50, p42” value is 100 µM; the “IC50, p44” value came out at 100 µM.

A further assay has as its target acidic fibroblast growth factor (aFGF) (UniProt P05230 16-155, limits assumed). Kind of assay: cell-based or functional assay.
For the molecule B1, the “(IC50) Inhibition, p42” value is 57.3 µM per head; likely % and the “(IC50) Inhibition, p44” value is 71.6 µM per head; likely %.
With B3, the “(IC50) Inhibition, p42” value was 73.1 µM per head; likely % and the “(IC50) Inhibition, p44” value was 84.5 µM per head; likely %.
For B5 the same measures were 68.3 µM per head; likely % and 79.7 µM per head; likely %.
For B19, the “(IC50) Inhibition, p42” value was 78.9 µM per head; likely % and the “(IC50) Inhibition, p44” value is 78.9 µM per head; likely %.
Turning to B6, the “(IC50) Inhibition, p42” value was 20.6 µM per head; likely % and the “(IC50) Inhibition, p44” value is 30.5 µM per head; likely %.
B7: the “(IC50) Inhibition, p42” value is 63.4 µM per head; likely % and 67.6 µM per head; likely %; the “(IC50) Inhibition, p44” value was 80.8 µM per head; likely % and 84.3 µM per head; likely %.
Consider B8, for which the “(IC50) Inhibition, p42” value was 8.7 µM per head; likely % and the “(IC50) Inhibition, p44” value was 8.9 µM per head; likely %.
Turning to B9, the “(IC50) Inhibition, p44” value was 43.3 µM per head; likely %.
With B10, the “(IC50) Inhibition, p44” value was 101 µM per head; likely %.
For B11, the “(IC50) Inhibition, p44” value is 19.9 µM per head; likely %.
B12: the “(IC50) Inhibition, p42” value was 62.6 µM per head; likely % and 72.1 µM per head; likely % and 47.8 µM per head; likely %; the “(IC50) Inhibition, p42 (mean)” value was 60.8 µM per head; likely %; the “(IC50) Inhibition, p44” value was 78.9 µM per head; likely % and 81.7 µM per head; likely % and 58.1 µM per head; likely %; the “(IC50) Inhibition, p44 (mean)” value is 72.9 µM per head; likely %.
Turning to B13, the “(IC50) Inhibition, p42” value was 76.1 µM per head; likely % and 93 µM per head; likely %; the “(IC50) Inhibition, p44” value was 85.2 µM per head; likely % and 98.9 µM per head; likely %.
In the case of B14, the “(IC50) Inhibition, p42” value was 54.8 µM per head; likely % and the “(IC50) Inhibition, p44” value was 64.1 µM per head; likely %.
For B15 the same measures were 44.1 µM per head; likely % and 53.9 µM per head; likely %.
On to B16, for which the “(IC50) Inhibition, p44” value is 50.2 µM per head; likely %.

Another assay addresses insulin-like growth factor-1 (IGF-1) (UniProt P05019 49-118). Kind of assay: cell-based or functional assay.
As to B3, the “% Inhibition at 100 µM, IGF1R-Y-P” value was found to be 40.6%; the “% Inhibition at 100 µM, p42” value worked out at 15%; the “% Inhibition at 100 µM, p44” value was found to be 59.5%.
Take B20: the “% Inhibition at 100 µM, IGF1R-Y-P” value came out at 3.4%; the “% Inhibition at 100 µM, p42” value came out at 2.8%; the “% Inhibition at 100 µM, p44” value turned out to be 33.4%.
On to B5, for which the “% Inhibition at 100 µM, p42” value came out at 68.3% and the “% Inhibition at 100 µM, p44” value stood at 79.7%.
With B6, the “% Inhibition at 100 µM, IGF1R-Y-P” value was determined as 1.5%; the “% Inhibition at 100 µM, p42” value was found to be 16.4%; the “% Inhibition at 100 µM, p44” value was determined as 55.2%.
On the same counts, the results for B7 are 4.9%, 17.1% and 61.5%.
On the same counts, the results for B8 are 33.8%, 28.3% and 62.1%.
For the molecule B21, the “% Inhibition at 100 µM, IGF1R-Y-P” value is -28.4%.
Consider B9, for which the “% Inhibition at 100 µM, IGF1R-Y-P” value was -12%; the “% Inhibition at 100 µM, p42” value is -6.1%; the “% Inhibition at 100 µM, p44” value worked out at 38.2%.
For B12 the same measures were 16.7%, 29.7% and 66.2%.
Take B14: the “% Inhibition at 100 µM, IGF1R-Y-P” value amounted to 16.8%; the “% Inhibition at 100 µM, p42” value amounted to 4.9%; the “% Inhibition at 100 µM, p44” value was found to be 53.5%.
For B15, the “% Inhibition at 100 µM, IGF1R-Y-P” value stood at 16.2%; the “% Inhibition at 100 µM, p42” value was determined as 0.8%; the “% Inhibition at 100 µM, p44” value turned out to be 46.1%.
